Experimental findings from the supplement of paper PMC7877785 are described below.

A short description of the data set: self-splicing fitness, log relative to wild type (ln ratio); higher = more splicing; Tetrahymena group I intron in knt gene, E. coli kanamycin selection, DiMSum; sequences stand for … in CUCUCU…GGAGGGAAAAGUUAUCAGGCAUGCACCUGGUAGCUAGUCUUUAAACCAAUAGAUUGCAUCGGUUUAAAAGGCAAGACCGUCAAAUUGCGGGAAAGGGGUCAACAGCCGUUCAGUACCAAGUCUCAGGGGAAACUUUGAGAUGGCCUUGCAAAGGGUAUGGUAAUAAGCUGACGGACAUGGUCCUAACCACGCAGCCAAGUCCUAAGUCAACAGAUCUUCUGUUGAUAUGGAUGCAGUUCACAGACUAAAUGUCGGUCGGGGAAGAUGUAUUCUUCUCAUAAGAUAUAGUCGGACCUCUCCUUAAUGGGAGCUAGCGGAUGAAGUGAUGCAACACUGGAGCCGCUGGGAACUAAUUUGUAUGCGAAAGUAUAUUGAUUAGUUUUGGAGUACUCGUGGUCG
Put shortly: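 The eight P1ex-region nucleotides of an intron in the knt kanamycin-resistance gene on pET-22b(+) were all randomised and the library put into E. coli BL21(DE3). Six replicate transformations were grown overnight at 37°C or 30°C on LB agar with or without 25 μg/mL kanamycin, together with 100 μg/mL carbenicillin, 50 μM IPTG and 0.2% rhamnose. Colonies were pooled and amplicon-sequenced on an Illumina HiSeq 2500. Fitness from DiMSum is the error-weighted combination of wild-type-normalised replicate fold changes, kanamycin over none.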

± gives the uncertainty stated by the source.

Consider AUAUAGCAAUAUUACGCAAU, for which the “self-splicing fitness (ln)” value is, setting by setting: (30 °C) -1.49 ± 0.17; (37 °C) -0.77 ± 0.22.
For UGAUAGCAAUAUUACGCCUU, in that order: -3.11 ± 0.31 and -1.32 ± 0.2.
For GAUAAGCAAUAUUACGGGAU, in that order: -2.39 ± 0.18 and -1.89 ± 0.19.
The like results for GUAUAGCAAUAUUACGAGGA were, in that order, -2.45 ± 0.26 and -2.66 ± 0.38.
GAAAAGCAAUAUUACGGAUG: the “self-splicing fitness (ln)” value reads like this: (30 °C) -2.63 ± 0.1; (37 °C) -1.14 ± 0.1.
For CGGAAGCAAUAUUACGUAUG, in that order: -1.49 ± 0.069 and -0.904 ± 0.083.
AACGAGCAAUAUUACGGGCC: the “self-splicing fitness (ln)” value is -4.29 ± 0.39 (30 °C) and -3.18 ± 0.47 (37 °C).
Take CUAUAGCAAUAUUACGAACC: the “self-splicing fitness (ln)” value (30 °C) was -2.11 ± 0.49.
Turning to GGUUAGCAAUAUUACGGUAG, the “self-splicing fitness (ln)” value (30 °C) was -2.79 ± 0.15 and the “self-splicing fitness (ln)” value (37 °C) is -2.28 ± 0.2.
For AACAAGCAAUAUUACGGCUU, in that order: -1.14 ± 0.081 and -0.539 ± 0.084.
For CACAAGCAAUAUUACGCUAA, in that order: -2.58 ± 0.18 and -1.82 ± 0.16.
For UACCAGCAAUAUUACGAGGU, in that order: -3.36 ± 0.22 and -3.39 ± 0.23.
On to CCAUAGCAAUAUUACGUACA, for which the “self-splicing fitness (ln)” value reads like this: (30 °C) -3.14 ± 0.21; (37 °C) -1.96 ± 0.21.
GUACAGCAAUAUUACGCUAC: where the note is “37 °C”, the “self-splicing fitness (ln)” value was -2.64 ± 0.48.
Consider UGCUAGCAAUAUUACGUCUG, for which the “self-splicing fitness (ln)” value runs as follows: (30 °C) -0.586 ± 0.088; (37 °C) -0.323 ± 0.095.
The like results for ACCAAGCAAUAUUACGUCUG were, in that order, -2.55 ± 0.1 and -1.02 ± 0.1.
The like results for CACCAGCAAUAUUACGGUGU were, in that order, -3.39 ± 0.11 and -1.82 ± 0.12.
Consider AGCCAGCAAUAUUACGUGAG, for which the “self-splicing fitness (ln)” value is -2.79 ± 0.1 (30 °C) and -0.902 ± 0.11 (37 °C).
The like results for CCAGAGCAAUAUUACGGCGU were, in that order, -4.2 ± 0.23 and -3.29 ± 0.29.
The like results for AGCUAGCAAUAUUACGGGGC were, in that order, -3.25 ± 0.19 and -2.5 ± 0.21.
For AACCAGCAAUAUUACGCCAU, in that order: -2.81 ± 0.15 and -1.42 ± 0.11.
As to GCGCAGCAAUAUUACGAUGA, the “self-splicing fitness (ln)” value is -0.132 ± 0.099 (30 °C) and -0.33 ± 0.092 (37 °C).
For GGAAAGCAAUAUUACGCUCA, in that order: -0.428 ± 0.12 and -0.303 ± 0.17.
The like results for UAACAGCAAUAUUACGUUUU were, in that order, -3.39 ± 0.12 and -1.7 ± 0.099.
Take GGCGAGCAAUAUUACGGAAA: under “30 °C”, the “self-splicing fitness (ln)” value was -1.06 ± 0.48.
The same measure, in the same setting: then GAAGAGCAAUAUUACGACCG, with -2.29 ± 0.36.
As for CCGAAGCAAUAUUACGGAAC, the “self-splicing fitness (ln)” value is -2.82 ± 0.28 (30 °C) and -2.03 ± 0.26 (37 °C).
Consider CUCGAGCAAUAUUACGACGA, for which the “self-splicing fitness (ln)” value (30 °C) was -2.5 ± 0.24 and the “self-splicing fitness (ln)” value (37 °C) is -1.26 ± 0.29.
Regarding UGGGAGCAAUAUUACGUUAA, the “self-splicing fitness (ln)” value (30 °C) was -2.76 ± 0.33.
For the sequence UGGGAGCAAUAUUACGCACG, the “self-splicing fitness (ln)” value (30 °C) is -3.26 ± 0.37.
With AGAGAGCAAUAUUACGUCGG, the “self-splicing fitness (ln)” value runs as follows: (30 °C) -2.92 ± 0.25; (37 °C) -2.2 ± 0.26.
The like results for ACCGAGCAAUAUUACGCGUU were, in that order, -2.95 ± 0.16 and -1.58 ± 0.18.
On to UAUCAGCAAUAUUACGUGAG, for which the “self-splicing fitness (ln)” value by setting is: (30 °C) 0.239 ± 0.054; (37 °C) 0.101 ± 0.084.
For UUAAAGCAAUAUUACGGGAU, in that order: -2.8 ± 0.14 and -0.86 ± 0.12.
For CUACAGCAAUAUUACGAAAU, in that order: -3.72 ± 0.16 and -2.82 ± 0.17.
The like results for CGCAAGCAAUAUUACGUUAG were, in that order, -1.15 ± 0.073 and -1.42 ± 0.1.
Consider UGUUAGCAAUAUUACGUUGG, for which the “self-splicing fitness (ln)” value is, setting by setting: (30 °C) -1.56 ± 0.11; (37 °C) -1.26 ± 0.14.
Regarding CGCGAGCAAUAUUACGGUAU, the “self-splicing fitness (ln)” value by setting is: (30 °C) -3.65 ± 0.34; (37 °C) -2.81 ± 0.34.
Take GGGCAGCAAUAUUACGAACA: the “self-splicing fitness (ln)” value (30 °C) is -0.951 ± 0.17 and the “self-splicing fitness (ln)” value (37 °C) was -0.607 ± 0.18.
As to AGGCAGCAAUAUUACGACCC, the “self-splicing fitness (ln)” value is, setting by setting: (30 °C) -0.357 ± 0.31; (37 °C) -0.702 ± 0.5.
The like results for CUUCAGCAAUAUUACGGUAG were, in that order, -1.94 ± 0.12 and -0.92 ± 0.14.
The like results for UUCCAGCAAUAUUACGGUGC were, in that order, -1.9 ± 0.16 and -1.23 ± 0.18.
As for GCUUAGCAAUAUUACGCUGA, the “self-splicing fitness (ln)” value (30 °C) was -2.77 ± 0.17 and the “self-splicing fitness (ln)” value (37 °C) is -3.37 ± 0.26.
For AGCCAGCAAUAUUACGCAAU, in that order: -3.25 ± 0.2 and -1.35 ± 0.17.
The like results for GGCUAGCAAUAUUACGGCUA were, in that order, 0.235 ± 0.32 and -0.282 ± 0.42.
The like results for GGGGAGCAAUAUUACGUGUG were, in that order, -3.08 ± 0.27 and -1.7 ± 0.21.
Consider ACCCAGCAAUAUUACGGCUU, for which the “self-splicing fitness (ln)” value (30 °C) is -0.338 ± 0.071 and the “self-splicing fitness (ln)” value (37 °C) was found to be 0.053 ± 0.089.
For AUCAAGCAAUAUUACGUGUC, in that order: -3.9 ± 0.15 and -2.6 ± 0.16.
For GUCCAGCAAUAUUACGUUAG, in that order: -3.15 ± 0.11 and -1.19 ± 0.095.
The like results for AAGCAGCAAUAUUACGUCCA were, in that order, -0.662 ± 0.089 and -0.156 ± 0.1.
Turning to UACCAGCAAUAUUACGCGCU, the “self-splicing fitness (ln)” value reads like this: (30 °C) -3.47 ± 0.37; (37 °C) -1.77 ± 0.22.
With GUGUAGCAAUAUUACGGUCC, the “self-splicing fitness (ln)” value was -1.7 ± 0.23 (30 °C) and -0.716 ± 0.25 (37 °C).
For the sequence UAGGAGCAAUAUUACGUUCU, the “self-splicing fitness (ln)” value (30 °C) is -3.31 ± 0.36 and the “self-splicing fitness (ln)” value (37 °C) is -2.54 ± 0.27.
The like results for CUCCAGCAAUAUUACGAUUG were, in that order, -1.53 ± 0.078 and -0.899 ± 0.11.
For CGGGAGCAAUAUUACGUUUA, in that order: -3.47 ± 0.31 and -1.8 ± 0.28.
The like results for UCCGAGCAAUAUUACGAUGG were, in that order, -0.964 ± 0.097 and -0.212 ± 0.12.
Turning to UUUAAGCAAUAUUACGGCCU, the “self-splicing fitness (ln)” value is -1.69 ± 0.14 (30 °C) and -0.999 ± 0.17 (37 °C).
The like results for UCUUAGCAAUAUUACGCGCA were, in that order, -0.966 ± 0.29 and -1.53 ± 0.23.
The like results for CGAAAGCAAUAUUACGAAUC were, in that order, -2.03 ± 0.45 and -1.87 ± 0.26.
The like results for AGGUAGCAAUAUUACGGCUG were, in that order, -1.13 ± 0.016 and -1 ± 0.037.
Consider UCUAAGCAAUAUUACGGAGA, for which the “self-splicing fitness (ln)” value (30 °C) was -1.6 ± 0.22 and the “self-splicing fitness (ln)” value (37 °C) is -1.3 ± 0.18.
The like results for CCUAAGCAAUAUUACGGUCA were, in that order, -3.95 ± 0.37 and -3.01 ± 0.2.
The like results for AUCGAGCAAUAUUACGGCCA were, in that order, -1.35 ± 0.41 and -1.47 ± 0.37.
The like results for UAGUAGCAAUAUUACGCUAU were, in that order, -1.34 ± 0.21 and -1.16 ± 0.25.
With GUUCAGCAAUAUUACGCGCG, the “self-splicing fitness (ln)” value by setting is: (30 °C) -0.45 ± 0.31; (37 °C) -0.279 ± 0.23.
Turning to CGAUAGCAAUAUUACGGUAA, the “self-splicing fitness (ln)” value is -3.58 ± 0.31 (30 °C) and -1.8 ± 0.27 (37 °C).
For GGCAAGCAAUAUUACGCGGG, in that order: -3.73 ± 0.21 and -3.23 ± 0.26.
In the case of AGGGAGCAAUAUUACGUGGU, the “self-splicing fitness (ln)” value (37 °C) is -3.13 ± 0.4.
As for ACACAGCAAUAUUACGGAAU, the “self-splicing fitness (ln)” value was -2.58 ± 0.084 (30 °C) and -2.31 ± 0.15 (37 °C).
For GUAAAGCAAUAUUACGGCUU, in that order: -0.183 ± 0.11 and 0.219 ± 0.14.
Regarding GCUUAGCAAUAUUACGGGAU, the “self-splicing fitness (ln)” value is -1.56 ± 0.074 (30 °C) and -0.453 ± 0.09 (37 °C).
Take UACAAGCAAUAUUACGAGAC: the “self-splicing fitness (ln)” value (30 °C) was -3.27 ± 0.43 and the “self-splicing fitness (ln)” value (37 °C) was -1.43 ± 0.23.
UGGUAGCAAUAUUACGUUAC: the “self-splicing fitness (ln)” value (30 °C) is -2.42 ± 0.37.
GGAAAGCAAUAUUACGAGUC: the “self-splicing fitness (ln)” value was -0.868 ± 0.11 (30 °C) and -1.48 ± 0.12 (37 °C).
In the case of GCCGAGCAAUAUUACGAAGU, the “self-splicing fitness (ln)” value runs as follows: (30 °C) -2.51 ± 0.35; (37 °C) -1.14 ± 0.24.
The like results for ACAAAGCAAUAUUACGUCUC were, in that order, -4.03 ± 0.18 and -2.09 ± 0.14.
For the sequence GCGAAGCAAUAUUACGCGUG, the “self-splicing fitness (ln)” value was -1.54 ± 0.12 (30 °C) and -1.7 ± 0.13 (37 °C).
